Results from patent US20140274782A1 (Stanford University, published 2014).

Assays:
Test in all cases: ProtoArray, GST-treated control array;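 also: human protein microarray (about 9500 recombinant proteins) incubated overnight with GST alone plus SAM cofactor as the negative control for G9a SET domain methylation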
[1] = molecular target: T1, GGPS1-Geranylgeranyl pyrophosphate synthetase (human, UniProt O95749 1-300)
T1 sequence (looked up): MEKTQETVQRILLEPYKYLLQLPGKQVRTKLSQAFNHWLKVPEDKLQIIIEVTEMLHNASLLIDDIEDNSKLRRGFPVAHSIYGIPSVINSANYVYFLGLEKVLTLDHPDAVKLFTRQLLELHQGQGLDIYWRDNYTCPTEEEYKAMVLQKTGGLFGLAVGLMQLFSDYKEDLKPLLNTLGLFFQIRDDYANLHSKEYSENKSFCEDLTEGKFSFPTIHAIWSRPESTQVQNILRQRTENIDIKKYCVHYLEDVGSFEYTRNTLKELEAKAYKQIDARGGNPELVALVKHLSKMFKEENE
Protocol: (§1) Briefly, a ProtoArray (Invitrogen, version 5.0) was incubated overnight with 50 μg of GST or recombinant GSTtagged G9a SET domain and the cofactor SAM.
(§2) Arrays were analyzed using GenePix Pro 6.1 software (Molecular Devices) and feature values were assigned to proteins using the array list provided by Invitrogen. We designated the following criteria for “hits”: GST array signal-to-noise ratio (SNR) less than or equal to 1.5, G9a array SNR greater than or equal to 10, and a difference between the G9a array SNR and the GST array SNR of greater than or equal to 12. Hits were individually visually validated. Proteins were removed from the list of potential substrates if irregular array features appeared to interfere with the array spots or SNR calculations.
(§3) Protein arrays bearing almost 9500 recombinant human proteins were methylated using GST-tagged recombinant G9a SET domain or GST alone as a control as shown in FIG. 4. […] Results were filtered for proteins scoring a GST array signal-to-noise ratio (SNR) less than or equal to 1.5, a G9a array SNR greater to or equal to 10, and a difference between the G9a and GST SNRs of greater than or equal to 12. Subsequent proteins were individually inspected for irregular array features.

[2] = molecular target: T2, GAL-galanin prepropeptide (GAL) (human, UniProt P22466 1-123, limits assumed)
T2 sequence (looked up): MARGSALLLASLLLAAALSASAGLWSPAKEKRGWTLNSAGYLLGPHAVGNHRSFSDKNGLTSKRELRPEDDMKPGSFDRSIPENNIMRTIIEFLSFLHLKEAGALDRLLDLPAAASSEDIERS
Protocol: as §1, §2, §3

[3] = molecular target: T3, SEC22B-Vesicle-trafficking protein SEC22b (human, UniProt O75396 1-215)
T3 sequence (looked up): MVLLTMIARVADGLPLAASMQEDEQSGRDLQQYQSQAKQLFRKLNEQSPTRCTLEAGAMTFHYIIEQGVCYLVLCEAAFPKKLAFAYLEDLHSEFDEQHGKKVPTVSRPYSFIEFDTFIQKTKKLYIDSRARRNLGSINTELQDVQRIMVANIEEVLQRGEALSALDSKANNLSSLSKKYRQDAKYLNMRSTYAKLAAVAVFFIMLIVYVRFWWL
Protocol: as §1, §2, §3

[4] = molecular target: T4, TCTA-T-cell leukemia translocation altered gene (TCTA) (human, UniProt P57738 1-103)
T4 sequence (looked up): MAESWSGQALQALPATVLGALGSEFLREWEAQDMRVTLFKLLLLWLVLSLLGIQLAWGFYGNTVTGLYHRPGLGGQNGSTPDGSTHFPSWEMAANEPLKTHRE
Protocol: as §1, §2, §3

[5] = molecular target: T5, LYPLAL1-lysophospholipase-like 1 (LYPLAL1) (human, UniProt Q5VWZ2 1-237)
T5 sequence (looked up): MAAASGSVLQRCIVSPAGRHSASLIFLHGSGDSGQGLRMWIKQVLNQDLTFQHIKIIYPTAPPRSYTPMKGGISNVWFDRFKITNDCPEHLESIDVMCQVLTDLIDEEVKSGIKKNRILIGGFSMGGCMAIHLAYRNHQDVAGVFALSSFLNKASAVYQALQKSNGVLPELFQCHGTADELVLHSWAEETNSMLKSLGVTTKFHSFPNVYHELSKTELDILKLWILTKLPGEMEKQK
Protocol: as §1, §2, §3

[6] = molecular target: T6, SMYD3-SET and MYND domain containing 3 (SMYD3) (human, UniProt Q9H7B4 1-428, limits assumed)
T6 sequence (looked up): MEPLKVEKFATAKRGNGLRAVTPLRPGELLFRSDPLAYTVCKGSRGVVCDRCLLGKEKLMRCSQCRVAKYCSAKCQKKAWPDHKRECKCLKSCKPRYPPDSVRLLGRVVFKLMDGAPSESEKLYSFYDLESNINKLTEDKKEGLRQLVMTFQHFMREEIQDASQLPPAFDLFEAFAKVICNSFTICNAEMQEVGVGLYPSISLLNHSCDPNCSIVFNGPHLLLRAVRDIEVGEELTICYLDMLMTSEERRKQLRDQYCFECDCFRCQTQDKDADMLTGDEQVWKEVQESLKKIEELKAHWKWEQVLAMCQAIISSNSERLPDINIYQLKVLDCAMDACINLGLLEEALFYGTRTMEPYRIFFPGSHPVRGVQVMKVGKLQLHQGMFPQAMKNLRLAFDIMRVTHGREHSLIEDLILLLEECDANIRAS
Protocol: as §1, §2, §3

[7] = molecular target: T7, CSF3-Granulocyte colony-stimulating factor (human, UniProt P09919 31-207, limits assumed)
T7 sequence (looked up): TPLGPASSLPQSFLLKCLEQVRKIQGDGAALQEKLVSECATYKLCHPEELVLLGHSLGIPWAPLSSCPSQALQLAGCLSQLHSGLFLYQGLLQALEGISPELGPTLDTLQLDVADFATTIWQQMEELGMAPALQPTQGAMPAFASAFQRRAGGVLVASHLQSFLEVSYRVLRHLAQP
Protocol: as §1, §2, §3

[8] = molecular target: T8, GPR108-G protein-coupled receptor 108 (GPR108) (human, UniProt Q9NPR9 33-543, limits assumed)
T8 sequence (looked up): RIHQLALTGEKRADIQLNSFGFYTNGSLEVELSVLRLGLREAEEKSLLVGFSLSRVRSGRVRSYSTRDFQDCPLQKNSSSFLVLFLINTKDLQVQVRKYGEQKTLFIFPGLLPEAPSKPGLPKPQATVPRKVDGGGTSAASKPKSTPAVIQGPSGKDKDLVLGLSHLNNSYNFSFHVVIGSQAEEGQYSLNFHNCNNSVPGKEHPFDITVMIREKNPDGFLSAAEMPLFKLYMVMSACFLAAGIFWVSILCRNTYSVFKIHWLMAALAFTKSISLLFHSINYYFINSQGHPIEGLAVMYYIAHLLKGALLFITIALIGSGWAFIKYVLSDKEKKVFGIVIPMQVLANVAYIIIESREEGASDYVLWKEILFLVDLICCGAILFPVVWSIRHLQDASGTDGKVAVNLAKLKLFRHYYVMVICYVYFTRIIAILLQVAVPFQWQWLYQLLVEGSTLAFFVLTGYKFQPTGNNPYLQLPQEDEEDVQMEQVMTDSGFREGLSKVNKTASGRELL
Protocol: as §1, §2, §3

[9] = molecular target: CDC2-cell division cycle 2, G1 to S and G2 to M (CDC2), transcript variant 1 (human, UniProt P06493 1-297)
CDC2-cell division cycle 2, G1 to S and G2 to M (CDC2), transcript variant 1, sequence (P06493 whole entry, change not shown): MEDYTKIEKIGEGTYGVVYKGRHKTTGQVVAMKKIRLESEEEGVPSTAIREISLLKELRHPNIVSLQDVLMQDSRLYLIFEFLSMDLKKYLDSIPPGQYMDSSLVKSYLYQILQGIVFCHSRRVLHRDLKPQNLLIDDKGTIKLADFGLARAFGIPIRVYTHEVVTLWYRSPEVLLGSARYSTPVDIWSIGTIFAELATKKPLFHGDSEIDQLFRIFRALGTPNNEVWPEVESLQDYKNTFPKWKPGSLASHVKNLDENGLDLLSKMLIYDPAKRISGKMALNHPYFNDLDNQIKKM
Protocol: as §1, §2, §3

B1: 3× Flag-3×MBT (designed binder)
chain: EEWSSSQPATGEKKECWSWESYLEEQKAITAPVSLFQDSQAVTHNKNGFKLGMKLEGIDPQHPSMYFILTVAEVCGYRLRLHFDGYSECHDFWVNANSPDIHPAGWFEKTGHKLQPPKGYKEEEFSWSQYLRSTRAQAAPKHLFVSQSHSPPPLGFQVGMKLEAVDRMNPSLVCVASVTDVVDSRFLVHFDNWDDTYDYWCDPSSPYIHPVGWCQKQGKPLTPPQDYPDPDNFCWEKYLEETGASAVPTWAFKVRPPHSFLVNMKLEAVDRRNPALIRVASVEDVEDHRIKIHFDGWSHGYDFWIDADHPDIHPAGWCSKTGHPLQPPLGPREPSSASPGG
notes: also called Flag-tagged 3×MBT; 3xFlag-3xMBT; not shown: made by PreScission cleavage of GST-3× Flag-3×MBT
What does the source list for B1?
GST Average SNR [1]: -0.483; GST Average SNR [2]: -0.0625; GST Average SNR [3]: -0.797; GST Average SNR [4]: 1.18; GST Average SNR [5]: 0.066; GST Average SNR [6]: 1.3; GST Average SNR [7]: 1.27; GST Average SNR [8]: -0.788; GST Average SNR [9]: -0.696
